Test results published in the supplement of paper PMC10065799, “High-throughput profiling of sequence recognition by tyrosine kinases and SH2 domains using bacterial peptide display” (eLife, 2023).

These sequences were tested on Fer (mouse) (assay: phosphorylation enrichment, bacterial display (enrichment ratio); higher = better substrate or ligand; peptides without Tyr show the background).
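Also: 11-residue human phosphosite peptides and single-mutation variants displayed on the E. coli surface, counted by deep sequencing, each peptide's frequency after selection divided by its frequency in the unselected input library; frequency after pTyr selection over input frequency; kinase dosed for 20-30% of maximal phosphorylation in three min.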

Row | Sequence | phosphorylation enrichment
1 | VGSEDYGWDLT [SPTAN1_Y1792_R1794W] | 0.463
2 | TLNTNYHLPPS [MT-ATP8_Y33_M28T] | 0.372
3 | FPMLNYKDIRK [CFAP221_Y798] | 0.362
4 | GGYTCYCDGKK [PROS1_Y266] | 0.484
5 | RDGDRYFKGIV [DCX_Y64_N60D] | 0.316
6 | WISNRYLDFSS [PRPH2_Y184] | 0.499
7 | RESYKYLPSSL [CXXC1_Y218_F219L] | 0.546
8 | VSSPKYGSDDE [TMCC2_Y473] | 0.553
9 | YDAHNYHPLPV [OAT_Y55_G51D] | 6.52
10 | ETRWKYHFEVV [GCNT3_Y267] | 0.57
11 | KRGIDYILRHM [FRMD1_Y225] | 0.415
12 | EWKNNCPRLRE [OPA1_Y582_Y582C] | 0.433
13 | GVRYTYTIDGS [DCX_Y105_I104T] | 0.429
14 | GLRCGYGVLGG [KRTAP20-2_Y15_Y13C] | 0.484
15 | TISPFYRQSLF [CRYAA_Y48_YF] | 0.369
16 | ADLAKYICENR [ALB_Y287_Q292R] | 0.498

Each sequence was assayed against FGFR3 (UniProt P22607) in the same assay as above.
Chain of FGFR3 (P22607 whole entry, looked up): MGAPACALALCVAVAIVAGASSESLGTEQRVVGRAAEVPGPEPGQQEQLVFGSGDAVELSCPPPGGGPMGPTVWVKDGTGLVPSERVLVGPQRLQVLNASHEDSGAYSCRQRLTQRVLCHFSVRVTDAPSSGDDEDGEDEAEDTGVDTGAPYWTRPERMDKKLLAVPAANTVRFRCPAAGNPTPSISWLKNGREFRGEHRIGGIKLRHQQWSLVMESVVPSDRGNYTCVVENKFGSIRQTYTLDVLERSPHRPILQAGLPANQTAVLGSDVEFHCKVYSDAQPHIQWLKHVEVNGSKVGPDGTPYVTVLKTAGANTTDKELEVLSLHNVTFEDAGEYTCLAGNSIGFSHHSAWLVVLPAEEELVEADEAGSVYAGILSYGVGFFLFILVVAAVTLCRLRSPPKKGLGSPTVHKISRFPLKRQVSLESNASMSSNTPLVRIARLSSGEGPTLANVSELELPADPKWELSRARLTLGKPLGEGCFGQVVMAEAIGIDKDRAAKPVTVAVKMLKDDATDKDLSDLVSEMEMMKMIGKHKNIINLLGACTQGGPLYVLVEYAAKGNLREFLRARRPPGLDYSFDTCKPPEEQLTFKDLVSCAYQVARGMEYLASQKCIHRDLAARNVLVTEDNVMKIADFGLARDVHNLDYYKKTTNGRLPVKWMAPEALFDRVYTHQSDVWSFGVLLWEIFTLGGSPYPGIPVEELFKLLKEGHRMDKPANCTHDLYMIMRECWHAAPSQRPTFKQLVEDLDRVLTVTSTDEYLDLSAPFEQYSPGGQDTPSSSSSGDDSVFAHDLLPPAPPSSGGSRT

Row | Sequence | phosphorylation enrichment
17 | VGSEDYGWDLT [SPTAN1_Y1792_R1794W] | 0.726
18 | TLNTNYHLPPS [MT-ATP8_Y33_M28T] | 1.69
19 | FPMLNYKDIRK [CFAP221_Y798] | 0.408
20 | GGYTCYCDGKK [PROS1_Y266] | 0.728
21 | RDGDRYFKGIV [DCX_Y64_N60D] | 0.491
22 | WISNRYLDFSS [PRPH2_Y184] | 0.676
23 | RESYKYLPSSL [CXXC1_Y218_F219L] | 0.821
24 | VSSPKYGSDDE [TMCC2_Y473] | 0.713
25 | YDAHNYHPLPV [OAT_Y55_G51D] | 7.27
26 | ETRWKYHFEVV [GCNT3_Y267] | 1.04
27 | KRGIDYILRHM [FRMD1_Y225] | 0.592
28 | EWKNNCPRLRE [OPA1_Y582_Y582C] | 0.654
29 | GVRYTYTIDGS [DCX_Y105_I104T] | 0.758
30 | GLRCGYGVLGG [KRTAP20-2_Y15_Y13C] | 0.612
31 | TISPFYRQSLF [CRYAA_Y48_YF] | 0.489
32 | ADLAKYICENR [ALB_Y287_Q292R] | 0.691

These sequences were tested on c-Abl (mouse) in the same assay as above.

Row | Sequence | phosphorylation enrichment
33 | VGSEDYGWDLT [SPTAN1_Y1792_R1794W] | 0.724
34 | TLNTNYHLPPS [MT-ATP8_Y33_M28T] | 0.655
35 | FPMLNYKDIRK [CFAP221_Y798] | 0.398
36 | GGYTCYCDGKK [PROS1_Y266] | 0.915
37 | RDGDRYFKGIV [DCX_Y64_N60D] | 0.485
38 | WISNRYLDFSS [PRPH2_Y184] | 0.793
39 | RESYKYLPSSL [CXXC1_Y218_F219L] | 1.25
40 | VSSPKYGSDDE [TMCC2_Y473] | 0.992
41 | YDAHNYHPLPV [OAT_Y55_G51D] | 1.05
42 | ETRWKYHFEVV [GCNT3_Y267] | 0.979
43 | KRGIDYILRHM [FRMD1_Y225] | 0.567
44 | EWKNNCPRLRE [OPA1_Y582_Y582C] | 0.592
45 | GVRYTYTIDGS [DCX_Y105_I104T] | 0.634
46 | GLRCGYGVLGG [KRTAP20-2_Y15_Y13C] | 0.617
47 | TISPFYRQSLF [CRYAA_Y48_YF] | 0.49
48 | ADLAKYICENR [ALB_Y287_Q292R] | 1.36

The sequences below were run against FGFR1 (UniProt P11362) in the same assay as above.
Chain of FGFR1 (P11362 whole entry, looked up): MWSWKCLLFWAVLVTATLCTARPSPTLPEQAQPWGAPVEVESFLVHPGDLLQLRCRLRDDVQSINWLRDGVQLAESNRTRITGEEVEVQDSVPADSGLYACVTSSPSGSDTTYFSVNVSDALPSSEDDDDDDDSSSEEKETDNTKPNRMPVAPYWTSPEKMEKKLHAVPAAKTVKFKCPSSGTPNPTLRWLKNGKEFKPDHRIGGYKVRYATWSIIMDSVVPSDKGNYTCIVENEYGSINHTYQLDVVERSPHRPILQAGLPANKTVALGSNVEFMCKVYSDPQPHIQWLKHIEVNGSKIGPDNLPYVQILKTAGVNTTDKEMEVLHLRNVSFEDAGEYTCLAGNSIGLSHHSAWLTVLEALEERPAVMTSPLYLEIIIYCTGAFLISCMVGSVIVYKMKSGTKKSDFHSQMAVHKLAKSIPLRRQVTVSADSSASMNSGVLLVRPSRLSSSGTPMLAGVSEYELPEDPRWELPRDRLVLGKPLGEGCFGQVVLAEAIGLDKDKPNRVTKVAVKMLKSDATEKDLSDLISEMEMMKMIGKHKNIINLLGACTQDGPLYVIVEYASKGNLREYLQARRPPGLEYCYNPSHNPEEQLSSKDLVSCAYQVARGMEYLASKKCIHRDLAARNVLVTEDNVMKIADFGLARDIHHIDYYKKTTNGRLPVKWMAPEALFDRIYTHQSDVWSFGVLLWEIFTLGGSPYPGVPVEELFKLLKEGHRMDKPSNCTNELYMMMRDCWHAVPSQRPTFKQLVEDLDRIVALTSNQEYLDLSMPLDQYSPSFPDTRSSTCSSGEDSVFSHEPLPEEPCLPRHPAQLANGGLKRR

Row | Sequence | phosphorylation enrichment
49 | VGSEDYGWDLT [SPTAN1_Y1792_R1794W] | 0.489
50 | TLNTNYHLPPS [MT-ATP8_Y33_M28T] | 2.51
51 | FPMLNYKDIRK [CFAP221_Y798] | 0.346
52 | GGYTCYCDGKK [PROS1_Y266] | 0.457
53 | RDGDRYFKGIV [DCX_Y64_N60D] | 0.574
54 | WISNRYLDFSS [PRPH2_Y184] | 0.564
55 | RESYKYLPSSL [CXXC1_Y218_F219L] | 1.21
56 | VSSPKYGSDDE [TMCC2_Y473] | 0.46
57 | YDAHNYHPLPV [OAT_Y55_G51D] | 12.7
58 | ETRWKYHFEVV [GCNT3_Y267] | 0.505
59 | KRGIDYILRHM [FRMD1_Y225] | 0.457
60 | EWKNNCPRLRE [OPA1_Y582_Y582C] | 0.508
61 | GVRYTYTIDGS [DCX_Y105_I104T] | 0.521
62 | GLRCGYGVLGG [KRTAP20-2_Y15_Y13C] | 0.381
63 | TISPFYRQSLF [CRYAA_Y48_YF] | 0.448
64 | ADLAKYICENR [ALB_Y287_Q292R] | 0.469
